Here are results for two molecules from patent US20130196320A1, “METHOD FOR IMPROVING CLEAVAGE OF DNA BY ENDONUCLEASE SENSITIVE TO METHYLATION” (CELLECTIS, priority 2010, published 2013).

Where two headings read alike, the source gives them in different places.

The test system of assay [1] is CAPNS1 target in human CAPNS1 gene, 293H cells. As to the kind of experiment: Meganuclease-induced mutagenesis assay at CAPNS1 recognition site. To be noted: Empty vector, 1 μM 5-aza-2′-deoxycytidine, CAPNS1 locus. Format: cell-based. On the procedure:
The human 293H cells (ATCC) were plated at a density of 1.2×10^6 cells per 10 cm dish in complete medium (DMEM supplemented with 2 mM L-glutamine, penicillin (100 IU/ml), streptomycin (100 μg/ml), amphotericin B (Fongizone: 0.25 μg/ml, Invitrogen-Life Science) and 10% FBS). The cells were pre-treated with 5-aza-deoxycytidine at 0.2 μM or 1 μM, 48 hours before transfection and the treatment was maintained 48 hours post-transfection. The medium was changed every day. The cells were transfected with 3 μg of DNA plasmids encoding meganuclease for RAG or 2.5 μg of each monomer CAPNS1 using Lipofectamine 2000 transfection reagent (Invitrogen) according to the manufacturer's protocol.
The efficiency of the meganuclease to promote mutagenesis at its endogenous recognition site was evaluated by sequencing the DNA surrounding the meganuclease cleavage site. Two days post-transfection, genomic DNA was extracted. 200 ng of genomic DNA were used to amplify (PCR amplification) the endogenous locus surrounding the meganuclease cleavage site. PCR amplification is performed to obtain a fragment flanked by specific adaptor sequences [adaptor A: 5′-[…]-NNNN-3′(SEQ ID NO: 46) and adaptor B, 5′-[…]-3′ (SEQ ID NO: 47)] provided by the company offering sequencing service (GATC Biotech AG, Germany) on the 454 sequencing system (454 Life Sciences). The primers sequences used for PCR amplification were:
RAG_R1: 5′-[…]-[…]-3′ (SEQ ID NO: 58) and CAPNS1_J3: 5′-[…]-NNNN-[…] (SEQ ID NO: 59) and CAPNS1_R3: 5′-[…]-[…]-3′ (SEQ ID NO: 60). Sequences specific to the locus are underlined. The sequence NNNN in primer F1 is a Barcode sequence (Tag) needed to link the sequence with a PCR product. The percentage of PCR fragments carrying insertion or deletion at the meganuclease cleavage site is related to the mutagenesis induced by the meganuclease through NHEJ pathway in a cell population, and therefore correlates with the meganuclease activity at its endogenous recognition site. 5000 to 10000 sequences were analyzed per conditions.

For assay [2], the system named is C1221 DNA target. As to the kind of experiment: In vitro cleavage assay with C1221 duplex, increasing meganuclease concentration. Format: biochemical. On the procedure:
FIG. 2: In vitro cleavage of unmethylated or methylated C1221 by I-CreI. A constant amount of C1221 (50 nM) was incubated with increasing concentrations of I-CreI (0 to 2 μM) in reaction buffer (10 mM Tris-HCl, 150 mM NaCl, 10 mM MgCl2, pH8) for an hour at 37° C. The reaction was stopped and the remaining uncleaved C1221 was quantify and plotted as function of I-CreI concentration.
FIG. 3: In vitro cleavage of unmethylated or methylated C1221 by I-CreI D75N. 50 nM C1221 containing either 0, 1, 2 or 3 methylated CG was incubated with increasing concentrations of I-CreI D75N (0 to 2 μM) in reaction buffer (10 mM Tris-HCl, 150 mM NaCl, 10 mM MgCl2, pH8) for an hour at 37° C. The reaction was stopped and cleaved and uncleaved C1221 (top and bottom panel respectively) were quantify and plotted as function of I-CreI D75N concentration.
To investigate the influence of C1221 methylation on the nuclease activity of I-CreI, an in vitro cleavage assay with either unmethylated or fully methylated C1221 duplex (SEQ ID NOs: 4-5 and 12-13 respectively) was performed. A constant amount of C1221 duplex (50 nM) was incubated with increasing concentration of I-CreI (0 to 2 μM) in a total volume of 25 μL of reaction buffer (10 mM Tris-HCl, 150 mM NaCl, 10 mM MgCl2, pH8). Cleavage reaction was allowed to proceed 1 hour at 37° C. and then stopped by addition of 5 μL of 6× stop buffer (45% glycerol, 95 mM EDTA, 1.5% (w/v) SDS, 1.5 mg/mL proteinase K and 0.048% (w/v) bromophenol blue) followed by an hour incubation at 37° C. Cleaved and uncleaved DNA products were separated by PAGE using a TGX Any kD precast gel (Bio-Rad), stained with SYBR Green and then quantified using Quantity One software (Bio-Rad).
To investigate the influence of C1221 methylation on the nuclease activity of I-CreI D75N, in vitro cleavage assay with C1221 duplex containing either 0, 1, 2 or 3 methylated CG (SEQ ID NOs: 4-5, 6-7, 8-9, 10-11 respectively) was performed, according to the procedure described for I-CreI wild type.

As for `Nc1ncn([C@H]2C[C@H](O)[C@@H](CO)O2)c(=O)n1` [5-aza-2′deoxycytidine, reference compound], the “mutagenesis, PCR fragments carrying a mutation” value in assay [1] is reported as 0.22%±0.25; in assay [1] (listed as 5-aza-2′-deoxycytidine), 0.22% ± 0.25.

B1: I-CreI: wild-type I-CreI meganuclease (… homing endonuclease), SEQ ID NO: 1, recombinant Cterm His-tag (protein, listed as Chlamydomonas reinhardtii)
chain: MNTKYNKEFLLYLAGFVDGDGSIIAQIKPNQSYKFKHQLSLTFQVTQKTQRRWFLDKLVDEIGVGYVRDRGSVSDYILSEIKPLHNFLTQLQPFLKLKQKQANLVLKIIEQLPSAKESPDKFLEVCTWVDQIAALNDSKTRKTTSETVRAVLDSLSEKKKSSP
modifications: C-terminal His-tag
As for B1, the EC50 was over 2000 nM in assay [2] (fully methylated C1221, 1 hour at 37° C., read-out: C50 (concentration of I-CreI needed to cleave 50% of C1221)) and 100 nM in assay [2] (unmethylated C1221, 1 hour at 37° C., read-out: C50 (concentration of meganuclease needed to cleave 50% of C1221)). Besides, the “I-CreI concentration at which C1221 is totally cleaved” value in assay [2] (unmethylated C1221) was 250 nM.
